T1: Human PAR2 StaR incorporated into nanodiscs (construct not stated) (human, UniProt P55085 37-377, limits assumed)
T1 construct: also called nanodisc-embedded StaR
T1 sequence: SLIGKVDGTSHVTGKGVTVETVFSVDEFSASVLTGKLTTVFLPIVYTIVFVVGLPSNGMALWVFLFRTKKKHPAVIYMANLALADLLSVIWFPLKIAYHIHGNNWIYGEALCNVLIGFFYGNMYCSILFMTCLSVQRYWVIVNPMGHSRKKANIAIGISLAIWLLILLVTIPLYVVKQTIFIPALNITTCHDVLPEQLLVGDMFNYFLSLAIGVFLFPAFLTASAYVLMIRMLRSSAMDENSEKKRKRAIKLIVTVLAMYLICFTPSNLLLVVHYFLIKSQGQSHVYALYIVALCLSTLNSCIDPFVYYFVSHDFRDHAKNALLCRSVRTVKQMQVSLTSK

T2: Wildtype human PAR2 expressed on cells (human, UniProt P55085 37-397)
T2 sequence: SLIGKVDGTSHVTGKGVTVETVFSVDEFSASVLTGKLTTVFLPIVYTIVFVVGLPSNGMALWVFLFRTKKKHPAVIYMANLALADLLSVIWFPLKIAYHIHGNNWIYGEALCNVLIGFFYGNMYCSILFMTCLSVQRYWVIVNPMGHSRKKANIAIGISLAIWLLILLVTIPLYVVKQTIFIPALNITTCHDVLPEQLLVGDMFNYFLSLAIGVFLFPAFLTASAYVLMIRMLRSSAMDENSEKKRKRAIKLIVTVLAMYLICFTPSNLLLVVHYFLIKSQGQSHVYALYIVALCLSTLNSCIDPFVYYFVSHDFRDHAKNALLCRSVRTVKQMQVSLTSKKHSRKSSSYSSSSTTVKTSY

B1: Y022870 (antibody, human IgG1, lambda, V domains shown)
VH: EVQLLESGGGLVQPGGSLRLSCAASGFSFSRYAITWVRQAPGKGLEWVSTISALGLETYYAESVRGRFTISRDNSKNTLYLQMNSLRAEDTAVYYCARGFHYTHSGKRYYYPFDIWGQGTLVTVSS
VL: QSALTQPASVSGSPGQSITISCTGTSSDVGSYNLVSWYQQHPGKAPKLMIYEGSKRPSGVSNRFSGSKSGNTASLTISGLQAEDEADYYCSQYATFIAFAVFGGGTKLTVLG
notes: also called Y22870
B2: Y022877 (antibody, human IgG1, lambda, V domains shown)
VH: EVQLLESGGGLVQPGGSLRLSCAASGFTFSRYAMTWVRQAPGKGLEWVSTISGLGQEAYYAGSVKGRFTISRDNSKNTLYLQMNSLRAEDTAVYYCARGFHYTHSGKRYYYPFDIWGQGTLVTVSS
VL: QSALTQPASVSGSPGQSITISCTGTSSDVGSYNLVSWYQQHPGKAPKLMIYEGSKRPSGVSNRFSGSKSGNTASLTISGLQAEDEADYYCSQYATFIAFAVFGGGTKLTVLG
notes: also called Y22877
B3: Y022883 (antibody, human IgG1, lambda, V domains shown)
VH: EVQLLESGGGLVQPGGSLRLSCAASGFSFTRYAISWVRQAPGKGLEWVSVISGHGSEANYAESVKGRFTISRDNSKNTLYLQMNSLRAEDTAVYYCARGFHYTHSGKRYYYPFDIWGQGTLVTVSS
VL: QSALTQPASVSGSPGQSITISCTGTSSDVGSYNLVSWYQQHPGKAPKLMIYEGSKRPSGVSNRFSGSKSGNTASLTISGLQAEDEADYYCSQYATFIAFAVFGGGTKLTVLG
notes: also called Y22883; Y02283

How the values were obtained:
[1] = molecular target: T1, Human PAR2 StaR incorporated into …; assay: SPR Biacore; human PAR2 StaR incorporated into nanodiscs
[2] = molecular target: T2, Wildtype human PAR2 expressed on cells; assay: cell-based or functional assay
[3] = molecular target: T2, Wildtype human PAR2 expressed on cells; assay: KinExA, apparent KD; IgG titrated with BacMam infected HEK-293F cells expressing wild-type full-length human PAR2
Protocol: (§1) For the determination of apparent KD using “native” PAR2 (i.e. PAR2 expressed at the cell surface) KinExA methodology was applied to evaluate a subset of lead clones, namely Y022870 and Y02283. […] The cells were titrated in incubation buffer (D-PBS from Gibco, 0.5% (w/v) BSA, 0.02% (v/v) Sodium azide). The experiment consisted of two titrations with a low and a high fixed IgG concentration. In both titration experiments (stoichiometry- and affinity-controlled conditions), the maximum amount of cells had to contain a high enough effective ligand concentration to completely saturate the IgG. The mixtures of IgG and cells were incubated at room temperature overnight under very gentle agitation to allow for equilibrium formation. Subsequently, the formed cell-antibody complex was removed by centrifugation. The free IgG amounts of the supernatants were determined with goat anti-human F(ab′)₂ fragment specific antibody (Jackson ImmunoResearch, #109-005-097) coated on PMMA (Polymethylmethacrylat) beads and fluorescence detection with anti-human F(ab′)₂ fragment specific Alexa Fluor 647 antibody (Jackson ImmunoResearch, #109-605-097). […] The recorded titration curves were analyzed with KinExA Pro software 4.1.11 using the n-curve analyse tool by applying the “Equilibrium, whole cell” model. […] Values are in line with SPR determined using PAR2 nanodiscs (210 and 140 pM, respectively).

[4] = molecular target: T2, Wildtype human PAR2 expressed on cells; assay: KinExA, whole cell equilibrium, HEK-293F cells expressing WT full-length human PAR2 titrated against two fixed IgG concentrations, apparent KD; sheet also prints Expression Level: 7.951e+006 receptors/cell, Error: 2.06 %
Protocol: as §1

[5] = molecular target: T3, Cynomolgus PAR2 on BacMam-infected HEK293 cells (cynomolgus); assay: flow cytometry on HEK293F-cynoPAR2 (3.0E+06 cells/mL), S/BG
T3 construct: whole, on cells; also called cyno PAR-2; Cyno PAR2

[6] = molecular target: T2, Wildtype human PAR2 expressed on cells; assay: KinExA, whole cell equilibrium, HEK-293F cells expressing WT full-length human PAR2 titrated against two fixed IgG concentrations, apparent KD; sheet also prints Expression Level: 2.518e+006 receptors/cell, Error: 2.56 %
Protocol: as §1

Binder	Kd [1] [nM]	koff [1] [s⁻¹]	kon [1] [M⁻¹ s⁻¹]	% Max Inhibition, AP challenge, IP-One [2] [%]	Kd [3] [nM]	Kd [4] [nM]	EC50 (read off the curve) [5] [nM]	Kd [6] [nM]
B1	2.7	0.00025	93000	203	~0.37	0.373	–	–
B2	2.8	0.00021	73000	167	–	–	~3	–
B3	–	–	–	149	~0.26	–	~2	0.259

Source: US20250313621A1 (NXERA PHARMA UK, published 2025)
